Test results taken from publication PMC5761661 (Biochemistry, 2017).
Like-named read-outs stand apart in the source and are kept apart here.

Legend:
[1] = target: IpaB^28–226-Alexa568 (Shigella flexneri); test: fluorescence polarisation
[2] = target: IpaB^28–226-Alexa568 (Shigella flexneri); test: fluorescence polarisation; remark: listed apart in the source
[3] = target: IpaD (invasion plasmid antigen D) (Shigella flexneri, UniProt P18013); test: fluorescence polarization, single site saturation fit; format: binding; conditions: read-out: Kd (μM) ± SD ^a; labelled compound; 25 nM FITC-DOC, 0-30 μM IpaD, PBS, 23 °C, 30 min

Substance	Kd [1] [nM]	Kd [2] [nM]	Kd [3] [µM]
IpaD Y149A (from UniProt P18013 1-332) (natural protein)	500	–	–
Wild-type IpaD (invasion plasmid antigen D) (from UniProt P18013 1-332) (natural protein)	2000	–	–
IpaD D144A/N146A/Y149A triple mutant (from UniProt P18013 1-332) (natural protein)	2200	7400	–
FITC-deoxycholate	–	–	9.3 ± 1.8
